Blank lines part the entries; values can stand above or below the molecule they belong to.
Experiments:
[1] = Skeletal muscle mass and Mss51 expression in lean mice; format: in vivo; conditions: 25 mg/kg twice weekly, seven days
Procedure: The effects of P1229 on body composition and metabolism in lean mice were further assessed.
Additional assays were performed to assess the relative expression level of Mss51, a skeletal muscle-specific gene. Mss51 is a key target of myostatin signaling, with a role in fatty acid oxidation, glycolysis, and oxidative phosphorylation.

[2] = Single-injection body weight gain in wild-type mice; format: in vivo; conditions: single 25 mg/kg subcutaneous injection, after 4 days, vs vehicle
Procedure: To investigate the target engagement of exemplary ActRIIB-ECD polypeptide constructs in vivo, mice (n=6/group) were injected with given agents (25 mg/kg, subcutaneous injection), and sacrificed after 4 days to assess body weight gain.

[3] = system: diet-induced obese (DIO) mice; assay: Body composition and metabolism in diet-induced obese (DIO) mice; format: in vivo; conditions: 3 weeks s.c., P75, P1229 25 mg/kg twice weekly, P1373 5, 20, 50 mg/kg twice weekly, P1307 20 mg/kg weekly
Procedure: Experiments were performed to assess the effects of P1229 on body composition and metabolism in diet-induced obese (DIO) mice. DIO mice were purchased from Jackson Laboratories (#380050). Briefly, mice were fed a high-fat diet (HFD, 60% kcal from fat) from 6 weeks of age until 22 weeks of age (total of 16 weeks on the HFD). […] After 3 weeks of treatments, some animals were sacrificed and scanned by EchoMRI […] (FIGS. 11A-F), while others were sacrificed for tissue collection and RNA analysis. Animals were maintained on the HFD throughout the acclimatization and treatment periods. The murine version of bimagrumab used for these experiments comprises the heavy chain amino acid sequence of SEQ ID NO: 376 and the light chain sequence of SEQ ID NO: 377.

[4] = SEC-HPLC monomer and HMW content of purified fusion proteins; format: physicochemical; conditions: after Protein A purification
From the text: Given that protein aggregation can be indicative of reduced conformational stability and decreased activity, Size-Exclusion Chromatography-High Performance Liquid Chromatography (SEC-HPLC) was used to determine the purity of each ActRIIB-ECD construct. This method measured the percentage of intact monomeric species as well as the presence of aggregates and/or degradation products.
All proteins expressed efficiently in CHO and/or 293 cells and purification efficiency of each using Protein A affinity chromatography was similar.

[5] = molecular target: T1, recombinant human activin A (human, UniProt P08476 311-426); assay: cell-based or functional assay
T1 sequence (looked up): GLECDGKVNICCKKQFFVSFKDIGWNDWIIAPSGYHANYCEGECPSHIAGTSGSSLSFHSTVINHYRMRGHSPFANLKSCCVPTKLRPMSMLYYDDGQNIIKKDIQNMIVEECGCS

GDF-8 = GDF-8 (UniProt O14793 267-375); assay: cell-based or functional assay
activin B = molecular target: T2, activin B (UniProt P09529 293-407); assay: cell-based or functional assay
T2 sequence (looked up): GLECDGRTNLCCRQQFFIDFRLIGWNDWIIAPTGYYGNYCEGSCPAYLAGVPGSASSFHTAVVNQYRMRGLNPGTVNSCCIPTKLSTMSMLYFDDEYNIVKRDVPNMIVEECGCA

GDF-11 = GDF-11 (UniProt O95390 299-407); assay: cell-based or functional assay
Sequence of GDF-11 (O95390 299-407 limits assumed): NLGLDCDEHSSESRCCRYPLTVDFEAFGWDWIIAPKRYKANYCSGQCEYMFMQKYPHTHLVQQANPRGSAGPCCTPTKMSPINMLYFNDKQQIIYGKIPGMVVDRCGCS

BMP-10 = molecular target: T3, BMP-10 (UniProt O95393 317-424); assay: cell-based or functional assay
T3 sequence (looked up): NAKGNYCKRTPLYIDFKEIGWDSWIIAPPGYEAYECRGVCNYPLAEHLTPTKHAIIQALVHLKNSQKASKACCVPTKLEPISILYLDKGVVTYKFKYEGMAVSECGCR

BMP-9 [6] = molecular target: T4, BMP-9 (UniProt Q9UK05 320-429); assay: cell-based or functional assay
T4 sequence (looked up): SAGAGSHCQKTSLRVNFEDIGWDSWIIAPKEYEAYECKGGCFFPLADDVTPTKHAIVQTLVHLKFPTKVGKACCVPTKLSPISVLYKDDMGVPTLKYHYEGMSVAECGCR

TGFβ superfamily ligands = assay: Neutralization profile across TGFβ superfamily ligands (HEK293 and HepG2 reporter assays, summary); format: cell-based, human
Procedure: Potency testing by neutralization on cell-based assays. Characterization of the activin A, activin B, GDF-8, and GDF-11 inhibition potency (IC50) of the fusion proteins was performed using a cell-based reporter assay. TGFβ-reporter HEK293 cells were obtained from InvivoGen (San Diego, CA, cat. no. hkb-tgfb) and were maintained following the manufacturer's instructions. Briefly, cells were grown in high-glucose DMEM, containing 10% heat-inactivated FBS, 30 μg/mL blasticidin, 250 μg/mL hygromycin B, and 100 μg/mL zeocin (hereafter, “growth medium”). Once the cells reached 70-80% confluence, they were detached in growth medium by gently tapping on the flask. For all assays, cells were seeded in 96-well plates at a density of 20,000 cells per well in growth medium. Cells were left to attach for 10 minutes at room temperature (RT) prior to being transferred to a 37° C. incubator (5% CO2) overnight. The next day, treatments were prepared by combining the appropriate concentration of agent with activin A, activin B, GDF-8, or GDF-11 for 30 min at RT (shaking at 150 rpm). Treatments were conducted in high-glucose DMEM (serum-free and with no selection agents), and the final concentration of cytokine (ligand) was 0.3 nM. Growth medium was removed from the culture plates, and cells were treated with the appropriate mixes of fusion protein and cytokine. Treatment duration was for 18-22 h at 37° C. (5% CO2). All treatments were performed in technical duplicates and at least one or two independent experiments were conducted for each cytokine. At the end of the treatment period, supernatants were transferred to a new plate, and centrifuged at 300 RPM for 3 min. Forty microlitres of supernatant from each condition was transferred to a new plate, into which 180 μL of Quanti-Blue reagent (InvivoGen, cat. no. rep-qbs) was added. Quanti-Blue reagent was prepared following the manufacturer's instructions. Samples were incubated for 45 min at 37° C. At the end of the incubation, absorbance was read at 650 nm. The data were plotted in GraphPad Prism, which was used to calculate IC50 values as a non-linear regression.
Characterization of the BMP-9 and BMP-10 inhibition potency (IC50) of the fusion proteins was performed using a second cell-based reporter assay. Human hepatic HepG2 cells were transfected with a SEAP-encoding plasmid, in which SEAP expression is under the control of the murine Id1 promoter. A stable pool was generated from this transfection. Cells were grown in EMEM, containing 10% heat-inactivated FBS and 200 μg/mL zeocin (hereafter, “HepG2 growth medium”). […] For all assays, cells were seeded in 96-well plates at a confluence of 100,000 cells per well in HepG2 growth medium. Cells were left to attach for 10 minutes at RT prior to being transferred to a 37° C. incubator (5% CO2) overnight. The next day, treatments were prepared in EMEM (2.5% heat-inactivated FBS and with no selection agents) by combining the appropriate concentration of agent with BMP-9 or BMP-10 for 30 min at RT (shaking at 150 rpm). Treatments were conducted in EMEM (2.5% heat-inactivated FBS and with no selection agents), and the final concentration of BMP-9 and BMP-10 was 2 ng/mL and 40 ng/mL, respectively. HepG2 growth medium was removed from the culture plates, and cells were treated with the appropriate mixes of fusion protein and cytokine. Treatment duration was for 20-24 h at 37° C. (5% CO2). […]

BMP-9 [7] = molecular target: T5, BMP-9 (Homo sapiens, UniProt Q9UK05); assay: Small-scale BMP-9 ELISA with CHO supernatants; format: binding; conditions: BMP-9 10 ng/mL
T5 sequence (Q9UK05 320-429): T4 sequence (looked up)
Procedure: Small-scale testing of ActRIIB-ECD fusion proteins. Additional investigation of a series of exemplary agents was performed using proteins expressed in CHO cells. Briefly, DNA encoding the ActRIIB-ECD-Fc fusion constructs was transfected in cells seeded in 12-well plates in a final volume of 1 ml. After 7 days, the supernatant was harvested, clarified, and the amount of expressed protein in each well was quantified using standard methods. The potency of each agent for inhibition of activin A, BMP-9 and BMP-10 was determined in three separate assays.
The next day, the plate was washed three times. […] Expressed proteins in the supernatants were diluted 1 in 2 in assay diluent (0.5% BSA, 0.05% tween-20 in PBS) and 100 μl was added to the 96-well plate in technical duplicates. After a 1.5-hour incubation at RT, the plate was washed three times. […] In this assay, a loss of signal indicates less binding of the exemplary agent to BMP-9. Results are expressed as a % of the signal obtained with wild-type ActRIIB-Fc (P75).

Molecule: P75: human wild type ActRIIB-ECD linked to human IgG1 Fc domain by a triple glycine linker; SEQ ID NO: 171; benchmark [reference compound]
tibialis anterior and gastrocnemius weight [1]: significantly increased
body weight gain [2]: statistically significant body weight gain
fat mass and lean mass (EchoMRI) [3]: promoted lean mass gain but less fat loss
high molecular weight (HMW) content (SEC-HPLC) [4]: 16%
monomer content (SEC-HPLC) [4]: 84%

Activin A IC50; TGFβ-reporter HEK293 cells [5]: 0.53 nM
GDF-8 IC50; TGFβ-reporter HEK293 cells (GDF-8): 0.33 nM
Activin B IC50; TGFβ-reporter HEK293 cells (activin B): 2 nM
GDF-11 IC50; TGFβ-reporter HEK293 cells (GDF-11): 0.39 nM
BMP-10 IC50; BMP-reporter HepG2 cells (BMP-10): > 100 nM
BMP-9 IC50; BMP-reporter HepG2 cells (BMP-9 [6]): > 1000 nM
B1: P1375 (Fc fusion)
chain: ETRECIYYNANWELERTNQSGLERCEGEQDKRWHCYASWRNSSGTIELVKKGCWLDDFNCYDRQECVATEENPQVYFCCCEGNFCNERFTHLPEAGGPEVTYEPPPTGGGGSGGGGSGGGGSGGGGTHTCPPCPAPELLGGPSVFLFPPKPKDTLYITREPEVTCVVVDVSHEDPEVKFNWYVDGVEVHNAKTKPREEQYNSTYRVVSVLTVLHQDWLNGKEYKCKVSNKALPAPIEKTISKAKGQPREPQVYTLPPSRDELTKNQVSLTCLVKGFYPSDIAVEWESNGQPENNYKTTPPVLDSDGSFFLYSKLTVDKSRWQQGNVFSCSVMHEALHNHYTQKSLSLSPG

BMP-9 binding, ELISA signal relative to P75 (BMP-9 [7]): near-undetectable binding to BMP-9
B2: P1375: hActRIIB L33W, 19 aa linker, IgG1 YTE-DL Fc; SEQ ID 234 (protein)
chain: B1 chain
impact of modifications in the Fc sequence on activin A, activin B, GDF-8, and GDF-11 potency (TGFβ superfamily ligands; all ligands): comparable to P1373
impact of modifications in the Fc sequence on BMP-9 and BMP-10 potency (TGFβ superfamily ligands; both ligands): comparable to P1373
high molecular weight (HMW) content (SEC-HPLC) [4]: 0%
monomer content (SEC-HPLC) [4]: 99%
